T1: GR (Homo sapiens, UniProt P04150)
T1 construct: expressed in transfected cells; host or cells: H1299, PC-3 (pSG5-GR)
T1 sequence (P04150 1-777): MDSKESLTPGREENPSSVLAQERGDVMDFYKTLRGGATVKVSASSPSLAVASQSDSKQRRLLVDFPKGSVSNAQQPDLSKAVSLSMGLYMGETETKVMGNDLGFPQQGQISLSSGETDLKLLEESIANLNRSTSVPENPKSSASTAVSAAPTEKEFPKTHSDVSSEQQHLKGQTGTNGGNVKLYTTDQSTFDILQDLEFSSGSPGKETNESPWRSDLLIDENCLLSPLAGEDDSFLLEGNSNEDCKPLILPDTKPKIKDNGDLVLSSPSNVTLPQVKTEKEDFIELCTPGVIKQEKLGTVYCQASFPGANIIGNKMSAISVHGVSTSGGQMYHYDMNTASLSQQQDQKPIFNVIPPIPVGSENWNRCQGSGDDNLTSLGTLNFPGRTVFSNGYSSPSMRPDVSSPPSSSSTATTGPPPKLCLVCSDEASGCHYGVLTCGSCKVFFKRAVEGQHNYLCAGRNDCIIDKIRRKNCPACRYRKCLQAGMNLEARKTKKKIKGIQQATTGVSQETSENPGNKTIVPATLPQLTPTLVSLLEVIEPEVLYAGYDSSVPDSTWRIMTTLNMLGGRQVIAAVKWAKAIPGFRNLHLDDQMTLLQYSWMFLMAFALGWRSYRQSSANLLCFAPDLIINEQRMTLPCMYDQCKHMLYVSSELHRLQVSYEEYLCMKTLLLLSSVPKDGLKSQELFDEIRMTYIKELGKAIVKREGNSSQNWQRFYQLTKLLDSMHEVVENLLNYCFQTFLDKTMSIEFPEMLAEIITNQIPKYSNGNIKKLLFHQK

T2: AR (Homo sapiens, UniProt P10275, DEL79-80/DUP473-473)
T2 sequence (P10275 with tags, fused parts or gaps DEL79-80/DUP473-473): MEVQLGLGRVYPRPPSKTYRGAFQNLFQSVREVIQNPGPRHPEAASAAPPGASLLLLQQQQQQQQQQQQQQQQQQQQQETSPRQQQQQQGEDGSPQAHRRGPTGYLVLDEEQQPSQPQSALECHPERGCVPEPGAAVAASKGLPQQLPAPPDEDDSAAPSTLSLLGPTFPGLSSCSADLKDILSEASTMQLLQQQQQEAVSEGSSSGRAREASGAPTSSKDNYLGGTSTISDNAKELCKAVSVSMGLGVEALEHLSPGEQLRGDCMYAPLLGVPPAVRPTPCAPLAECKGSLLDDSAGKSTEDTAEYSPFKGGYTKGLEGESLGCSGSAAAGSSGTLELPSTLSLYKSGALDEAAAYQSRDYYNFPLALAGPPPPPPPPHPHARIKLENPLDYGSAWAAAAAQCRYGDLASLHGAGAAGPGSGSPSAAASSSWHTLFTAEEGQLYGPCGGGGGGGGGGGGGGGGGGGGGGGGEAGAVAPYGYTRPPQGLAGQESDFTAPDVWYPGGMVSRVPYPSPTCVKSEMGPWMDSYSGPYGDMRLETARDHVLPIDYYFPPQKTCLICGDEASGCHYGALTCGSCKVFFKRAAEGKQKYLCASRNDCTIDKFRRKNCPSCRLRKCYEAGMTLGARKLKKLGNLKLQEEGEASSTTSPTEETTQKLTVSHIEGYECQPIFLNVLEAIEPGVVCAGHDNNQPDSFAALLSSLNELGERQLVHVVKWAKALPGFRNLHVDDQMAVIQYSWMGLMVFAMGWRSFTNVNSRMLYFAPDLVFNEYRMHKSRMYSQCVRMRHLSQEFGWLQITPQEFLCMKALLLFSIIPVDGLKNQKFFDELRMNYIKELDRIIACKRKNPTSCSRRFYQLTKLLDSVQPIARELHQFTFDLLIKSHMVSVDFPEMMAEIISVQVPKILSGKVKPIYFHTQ

B1: TR2: human testicular orphan nuclear receptor 2, 603 amino acids (protein, UniProt P13056 1-603, looked up)
chain: MATIEEIAHQIIEQQMGEIVTEQQTGQKIQIVTALDHNTQGKQFILTNHDGSTPSKVILARQDSTPGKVFLTTPDAAGVNQLFFTTPDLSAQHLQLLTDNSPDQGPNKVFDLCVVCGDKASGRHYGAVTCEGCKGFFKRSIRKNLVYSCRGSKDCIINKHHRNRCQYCRLQRCIAFGMKQDSVQCERKPIEVSREKSSNCAASTEKIYIRKDLRSPLTATPTFVTDSESTRSTGLLDSGMFMNIHPSGVKTESAVLMTSDKAESCQGDLSTLANVVTSLANLGKTKDLSQNSNEMSMIESLSNDDTSLCEFQEMQTNGDVSRAFDTLAKALNPGESTACQSSVAGMEGSVHLITGDSSINYTEKEGPLLSDSHVAFRLTMPSPMPEYLNVHYIGESASRLLFLSMHWALSIPSFQALGQENSISLVKAYWNELFTLGLAQCWQVMNVATILATFVNCLHNSLQQDKMSTERRKLLMEHIFKLQEFCNSMVKLCIDGYEYAYLKAIVLFSPDHPSLENMEQIEKFQEKAYVEFQDYITKTYPDDTYRLSRLLLRLPALRLMNATITEELFFKGLIGNIRIDSVIPHILKMEPADYNSQIIGHSI
modifications: full-length
notes: human testicular orphan nuclear receptor 2, 603 amino acids
B2: TR4: human testicular orphan nuclear receptor 4, SEQ ID NO:16; expressed from plasmid or in vitro translated (protein)
chain: MTSPSPRIQIISTDSAVASPQRIQGSEPASGPLSVFTSLNKEKIVTDQQTGQKIQIVTAVDASGSPKQQFILTSPDGAGTGKVILASPETSSAKQLIFTTSDNLVPGRIQIVTDSASVERLLGKTDVQRPQVVEYCVVCGDKASGRHYGAVSCEGCKGFFKRSVRKNLTYSCRSSQDCIINKHHRNRCQFCRLKKCLEMGMKMESVQSERKPFDVQREKPSNCAASTEKIYIRKDLRSPLIATPTFVADKDGARQTGLLDPGMLVNIQQPLIREDGTVLLATDSKAETSQGALGTLANVVTSLANLSESLNNGDTSEIQPEDQSASEITRAFDTLAKALNTTDSSSSPSLADGIDTSGGGSIHVISRDQSTPIIEVEGPLLSDTHVTFKLTMPSPMPEYLNVHYICESASRLLFLSMHRARSIPAFQGLGQDCNTSLVRACWNELFTLGLAQCAQVMSLSTILAAIVNHLQNSIQEDKLSGDRIKQVMEHIWKLQEFCNSMANWDIDGYEYAYLKAIVLFSPDHPGLTSTSQIEKFQEKAQMELQDYVQKTYSEDTYRLARILVRLPALRLMSSNITEELFFTGLIGNVSIDSIIPYILKMETAEYNGQITGVSL

How the values were obtained:
Format in all cases: cell-based
MCF7-TR2 cells = assay: MTT growth assay, MCF7-TR2 cells
Procedure: (A) Growth assays were performed by MTT method as instructed by manufacturer (Sigma). 5×10^3 MCF7-pBIG and MCF7-TR2 cells were seeded in 24-well plates and incubated in RPMI with 10% CD-FCS for 48 h. […] After 3- and 5-day treatment, cells were harvested for MTT assay. Data represents the relative folds of MTT O.D.570 values at day 5 divided by that at day 3. […] Cells were then trypsinized and fixed overnight in 70% Ethanol. After cells were incubated with 1 mg/ml RNase A (Sigma) and propidium iodide (Roche Molecular Biochemicals), the DNA contents of cells were measured by a flow cytometry. (C) Percentage of growth suppression by TR2. MCF7-TR2 cells were seeded at 5×10^3 cells per well in 24-well plates. […] The treatments were changed every two days. The indices of cell growth were determined by MTT assay. The MTT values from cells without doxycycline were set as 100% in each kind of treatment. Values are represented by the percentage of growth suppression from cells with doxycycline to that without doxycycline.

GR = molecular target: T1, GR; assay: GR-mediated transactivation (MMTV reporter)
Procedure: To eliminate the potential artificial effects caused by overexpression of exogenous ER, T47D cells were used as a model to test the TR2 suppression effect on the endogenous ER-mediated transactivation. T47D cells were transfected with 1 μg of ERE-CAT reporter plasmid together with increasing amounts of the TR2 expression plasmid. […] All of the cells also were transfected with a galactosidase expression plasmid, pCMV-β-gal to normalize the transfection efficiency. As expected, the TR2 can still repress the endogenous ER-mediated ERE-CAT activity (FIG. 8B). For a control, the potential suppression effect of the TR2 on other steroid receptors-mediated transactivation was also tested, such as PR or GR. H1299 cells were co-transfected with 1 μg of MMTV-CAT reporter plasmid and 1 μg of PR or GR expression plasmid together with increasing amounts of the TR2 expression vector. […] AU of the cells also were transfected with a β-galactosidase expression plasmid, pCMV-β-gal to normalize the transfection efficiency.
AR is known to be highly involved in prostate cancer progression, and both TR2 and AR are expressed in prostate cancer, therefore the TR2 effect on AR transactivation activity was analyzed.

MCF-7-TR4 cells = assay: MCF-7 cells growth assay (cell counting); details: MCF-7-TR4 cells (E2 also in MCF-7-pBIG); 10 nM E2; Dox
Procedure: MCF-7-TR4 and MCF-7-pBIG cells, which were deprived of estrogen by culturing in phenol-free DMEM medium supplement with 10% charcol-stripped FBS for 4 days, were plated at 10^4 cells/well into 24-well plate. […] Cells were trypsinized at the specified time points and counted with a hemocytometer to determine cell density per sample.

AR = molecular target: T2, AR; assay: Immunocytofluorescence of AR localization in DU145 cells; design: expressed in transfected cells; host or cells: DU145 cells; details: absence of DHT
Procedure: DU145 cells were seeded on two-well Lab Tek Chamber slides (Nalge Nunc International) 18 h before transfection. One to two μg of DNA per 10^5 cells was transfected by the FuGENETM 6 transfection reagent (Boehringer-Mannheim). […] Immunostaining was performed by incubating with anti-AR polyclonal antibody (NH27), anti-TR4 monoclonal antibody (#15), and anti-ERa monoclonal antibody (C-314, Santa Cruz), followed by incubation with either fluorescein-conjugated goat anti-rabbit or anti-mouse antibodies (ICN Pharmaceuticals, Inc.). […] The slides were photographed under 100-fold magnification using confocal microscopy.
An immunocytofluorescence assay was then applied to determine the subcellular localization of the AR and TR4 in DU145 cells. DU145 cells were seeded on two-well Lab Tek Chamber slides (Nalge Nunc International) 18 hours before transfection. One to two μg of DNA per 105 cells was transfected either with AR (unliganded or liganded), TR4, or ER alone or in combination with the FuGENETM6 transfection reagent (Boehringer-Mannheim). […] Immunostaining was performed by incubation with the anti-AR polyclonal antibody, anti-TR4 monoclonal antibody, or anti-ERa monoclonal antibody, followed by incubation with either fluorescein-conjugated goat anti-rabbit or anti-mouse antibodies (ICN Pharmaceuticals, Inc.).

Molecule	Cell growth suppressed by TR2, compared to cells without doxycycline (MCF7-TR2 cells; all-trans retinoic acid treated cells (all-trans RA))	Cell growth suppressed by TR2, compared to cells without doxycycline (MCF7-TR2 cells; presence of E2, 6- and 8-day treatments)	Cell growth suppressed by TR2, compared to cells without doxycycline (MCF7-TR2 cells; under 5 μM tamoxifen treatment)	GR-mediated transactivation (MMTV-CAT) (GR; H1299 cells, 10^−8 M glucocorticoid, increasing TR2)	GR-mediated transactivation (MMTV-CAT) (GR; PC-3 cells, 10 nM dexamethasone, pCMV-TR2)	GR-mediated transcription (MMTV-CAT) (GR; T47D cells, Example 2)	Cell growth (cell number) (MCF-7-TR4 cells)	Subcellular localization of unliganded AR on co-transfection (AR)
B1	29-45%	71-72%	8-9%	little effect	less suppression effect	marginal effect	–	–
B2	–	–	–	–	–	–	repress	moves into the nucleus

From patent publication US20030235860A1, “Interactions between AR, ER, TR2, and TR4” (priority 1999, published 2003)
